Target: human APJ receptor (hAPJ) (human) (UniProt P35414)
Experiment: cell-based or functional assay

human APJ receptor (hAPJ) (human), sequence (P35414 whole entry): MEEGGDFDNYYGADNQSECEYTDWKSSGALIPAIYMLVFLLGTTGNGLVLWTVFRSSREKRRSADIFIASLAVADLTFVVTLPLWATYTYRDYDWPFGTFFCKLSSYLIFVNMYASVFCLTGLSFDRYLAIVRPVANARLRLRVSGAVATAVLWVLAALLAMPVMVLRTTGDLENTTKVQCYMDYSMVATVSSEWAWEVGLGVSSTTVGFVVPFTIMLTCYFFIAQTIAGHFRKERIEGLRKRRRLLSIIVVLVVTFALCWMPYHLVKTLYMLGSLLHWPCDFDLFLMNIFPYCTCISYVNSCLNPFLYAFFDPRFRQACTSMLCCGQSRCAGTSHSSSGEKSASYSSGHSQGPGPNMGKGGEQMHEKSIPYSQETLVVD

| hAPJ Ca^2+ Flux EC50 [nM] | Substance |
| --- | --- |
| 16.3 | Conjugate of AH-Fc with apelin cyclic peptide: AH-Fc-BCN clicked to NH2-AzidoLys-GGGGS-Q-R-P-C-L-S-C-K-G-P-Dnle-Phenethylamine (from UniProt P0DOX5 223-449) (Fc fusion) |
| 28.9 | Fc-Apelin conjugate using sortase: Fc-GGGGS-LPET-GGGGG-QRPC*LSC*KGP(D-Nle)Phenethylamine (Fc fusion) |

From patent publication US20160108091A1
